Results on one substance are retold here after publication PMC5624926.

The data set in a line: recombinant expression of point mutants. The note with it: glycan lost; control: wild-type CD22 20-330.

For CD22 (Siglec-2): N101A, the expression_or_secretion result was “decreases”.
